{"source": "paper PMC1500806", "about": "“Carrageenan Is a Potent Inhibitor of Papillomavirus Infection” (PLoS Pathogens, 2006)", "molecules": {"B1": {"name": "Lactoferrin (protein, UniProt P24627 20-708, looked up)", "Lactotransferrin": "APRKNVRWCTISQPEWFKCRRWQWRMKKLGAPSITCVRRAFALECIRAIAEKKADAVTLDGGMVFEAGRDPYKLRPVAAEIYGTKESPQTHYYAVAVVKKGSNFQLDQLQGRKSCHTGLGRSAGWIIPMGILRPYLSWTESLEPLQGAVAKFFSASCVPCIDRQAYPNLCQLCKGEGENQCACSSREPYFGYSGAFKCLQDGAGDVAFVKETTVFENLPEKADRDQYELLCLNNSRAPVDAFKECHLAQVPSHAVVARSVDGKEDLIWKLLSKAQEKFGKNKSRSFQLFGSPPGQRDLLFKDSALGFLRIPSKVDSALYLGSRYLTTLKNLRETAEEVKARYTRVVWCAVGPEEQKKCQQWSQQSGQNVTCATASTTDDCIVLVLKGEADALNLDGGYIYTAGKCGLVPVLAENRKSSKHSSLDCVLRPTEGYLAVAVVKKANEGLTWNSLKDKKSCHTAVDRTAGWNIPMGLIVNQTGSCAFDEFFSQSCAPGADPKSRLCALCAGDDQGLDKCVPNSKEKYYGYTGAFRCLAEDVGDVAFVKNDTVWENTNGESTADWAKNLNREDFRLLCLDGTRKPVTEAQSCHLAVAPNHAVVSRSDRAAHVKQVLLHQQALFGKNGKNCPDKFCLFKSETKNLLFNDNTECLAKLGGRPTYEEYLGTEYVTAIANLKKCSTSPLLEACAFLTR"}}, "key": {"HPV16 PsV": {"system": "HPV16 PsV", "type": "cell-based, human papillomavirus", "conditions": "HeLa cells, nonpolysaccharide compounds, dash = no inhibition at noncytotoxic doses", "protocol": "Various candidate HPV infection inhibitors were tested using a PsV-based inhibition assay. The assay uses flow cytometric analysis to assess the inhibition of PsV-mediated delivery of a green fluorescent protein (GFP) reporter plasmid into HeLa cells. HPV16, an exceptionally oncogenic genital HPV type, was chosen as a model HPV for initial experiments.\n(§1) Compounds were tested using a previously described PsV-based papillomavirus inhibition assay. Briefly, HeLa cells were plated at 6,000 cells/well in 50 μl of medium in 96-well plates. Candidate inhibitors were dissolved at 1–10 mg/ml (or reconstituted as directed by manufacturer) in sterile water or appropriate solvent, then subjected to a ten-point three-fold serial dilution covering an appropriate concentration range. Diluted candidate inhibitor (50 μl) was added to preplated HeLa cells, followed by 50 μl of diluted PsV stock. The cells were incubated for 24 h, fed by addition of 100 μl of DMEM-10, then subjected to flow cytometric analysis 48–56 h after infection. IC50 values and 95% CI were determined using Prism (GraphPad Software, San Diego, California, United States) to calculate a variable slope sigmoidal dose-response curve.\nPsV doses were calibrated such that between 5% and 20% of cells scored as GFP^+ when no inhibitors were added. […] HPV5 PsV infection of HeLa cells was performed with a dose of 35 ng/ml L1. […]"}, "HeLa cells": {"system": "HeLa cells", "assay": "Cytotoxicity (WST-1 turnover and/or cell morphology)", "type": "cell-based", "conditions": ">50% reduction in WST-1 turnover and/or altered cell morphology", "protocol": "as §1\nCytotoxicity was defined as a >50% reduction in the net turnover of the metabolic substrate WST-1 (Roche, Indianapolis, Indiana, United States) and/or by the appearance of dramatic alterations in the microscopic appearance of cell morphology at the time of harvest."}}}
{"molecule": "B1", "values": [{"measurement": "IC50", "setting": "HPV16 PsV", "value": 13, "unit": "mg/L"}, {"measurement": "Cytotoxicity", "setting": "HeLa cells", "value": ">780", "unit": "µg/mL"}]}
